Where a chain is given by its changes, count along the chain named. Numbers in names are those of the source.
B1: TACE prodomain (TPD), wild type, Asp23-Arg214 (domain or fragment, human, UniProt P78536 23-214, looked up)
chain: DPGFGPHQRLEKLDSLLSDYDILSLSNIQQHSVRKRDLQTSTHVETLLTFSALKRHFKLYLTSSTERFSQNFKVVVVDGKNESEYTVKWQDFFTGHVVGEPDSRVLAHIRDDDVIIRINTDGAEYNIEPLWRFVNDTKDKRMLVYKSEDIKNVSRLQSPKVCGYLKVDNEELLPKGLVDREPPEELVHRVKR
notes: prodomain of human ADAM17/TACE, residues Asp23-Arg214; The methods say Asp24-Arg214, but the DNA fits Asp23; The WT runs as a disulfide-linked dimer without reducing agent; also called WT TPD; TPD WT; source: E. coli BL21 (DE3), pET28, soluble fraction, purified (Ni column, HiTrap Q, Superdex 75)
B2: TACE prodomain (TPD) C184A (domain or fragment, human, UniProt P78536 23-214, looked up)
chain: B1 chain with C162A

Tests used:
[1] = target: recombinant TACE catalytic domain; assay: cell-based or functional assay
recombinant TACE catalytic domain, sequence (P78536 215-671): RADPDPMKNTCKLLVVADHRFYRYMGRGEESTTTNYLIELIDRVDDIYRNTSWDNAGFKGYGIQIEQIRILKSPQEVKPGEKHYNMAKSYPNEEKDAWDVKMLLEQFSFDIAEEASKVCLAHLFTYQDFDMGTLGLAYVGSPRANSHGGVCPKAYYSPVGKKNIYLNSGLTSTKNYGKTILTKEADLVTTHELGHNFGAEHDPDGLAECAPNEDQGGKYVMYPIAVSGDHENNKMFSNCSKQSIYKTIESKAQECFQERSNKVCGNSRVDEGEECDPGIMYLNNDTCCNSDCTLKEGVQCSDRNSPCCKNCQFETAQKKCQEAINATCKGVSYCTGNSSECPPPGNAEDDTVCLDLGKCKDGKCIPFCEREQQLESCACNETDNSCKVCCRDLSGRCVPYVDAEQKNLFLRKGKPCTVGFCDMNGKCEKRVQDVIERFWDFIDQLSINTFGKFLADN

[2] = target: the molecule itself; assay: SDS-PAGE under non-reducing conditions; purified TPD; 40 kDa band = covalent (disulfide-linked) dimer, 20 kDa band = monomer

Row | Binder | IC50 of inhibition of the enzyme's hydrolysis of a fluorogenic peptide (10 nM TACE, Mca-PLAQAV-Dpa-RSSSR 10 μM, 37 °C, 30 min pre-incubation with TPD) [1] | stoichiometry N [2] | IC50 of inhibition of the enzyme's hydrolysis of a fluorogenic peptide (10 nM TACE, 37 °C) [1]
1 | B1 | 145 nM | 2 | 
2 | B2 |  |  | 33 nM

Reference: paper PMC5159831, “Harnessing the natural inhibitory domain to control TNFα Converting Enzyme (TACE) activity in vivo” (Scientific Reports, 2016)
